The target of the test is Mycobacterium tuberculosis RNA polymerase, wild type (Mycobacterium tuberculosis) (UniProt P9WGY9). Kind of test: FP.

Drawing on publication PMC7718890, “High-throughput screening to discover inhibitors of the CarD·RNA polymerase protein–protein interaction in Mycobacterium tuberculosis” (Scientific Reports, 2020), this text covers Kd for one substance.

With CarD T24C labelled with BODIPY-FL, the dissociation constant Kd – broadly, the concentration at which binding is half-saturated – is 56 nM.
